We go through 1 substance from patent US20240252534A1.

Experiment [1] deals with Recombinant PSMA-His (sino biologicals) (UniProt Q04609). The experiment can be described thus: SPR, Biacore T200, pH 6.5; antibody captured on Protein A chip, PSMA-His as analyte, 1:1 Langmuir fit. (Surface plasmon resonance follows binding to a sensor surface in real time, without labels.)
The target is the same in experiment [2]. The experiment can be described thus: SPR, Biacore T200, pH 7.4; antibody captured on Protein A chip, PSMA-His as analyte, 1:1 Langmuir fit.
Experiment [3] has the same target. The experiment can be described thus: SPR, Biacore T200, pH 7; antibody captured on Protein A chip, PSMA-His as analyte, 1:1 Langmuir fit.
The target is the same in experiment [4]. The experiment can be described thus: SPR, Biacore T200, pH 6; antibody captured on Protein A chip, PSMA-His as analyte, 1:1 Langmuir fit.

Recombinant PSMA-His (sino biologicals), sequence (Q04609 44-750 limits assumed): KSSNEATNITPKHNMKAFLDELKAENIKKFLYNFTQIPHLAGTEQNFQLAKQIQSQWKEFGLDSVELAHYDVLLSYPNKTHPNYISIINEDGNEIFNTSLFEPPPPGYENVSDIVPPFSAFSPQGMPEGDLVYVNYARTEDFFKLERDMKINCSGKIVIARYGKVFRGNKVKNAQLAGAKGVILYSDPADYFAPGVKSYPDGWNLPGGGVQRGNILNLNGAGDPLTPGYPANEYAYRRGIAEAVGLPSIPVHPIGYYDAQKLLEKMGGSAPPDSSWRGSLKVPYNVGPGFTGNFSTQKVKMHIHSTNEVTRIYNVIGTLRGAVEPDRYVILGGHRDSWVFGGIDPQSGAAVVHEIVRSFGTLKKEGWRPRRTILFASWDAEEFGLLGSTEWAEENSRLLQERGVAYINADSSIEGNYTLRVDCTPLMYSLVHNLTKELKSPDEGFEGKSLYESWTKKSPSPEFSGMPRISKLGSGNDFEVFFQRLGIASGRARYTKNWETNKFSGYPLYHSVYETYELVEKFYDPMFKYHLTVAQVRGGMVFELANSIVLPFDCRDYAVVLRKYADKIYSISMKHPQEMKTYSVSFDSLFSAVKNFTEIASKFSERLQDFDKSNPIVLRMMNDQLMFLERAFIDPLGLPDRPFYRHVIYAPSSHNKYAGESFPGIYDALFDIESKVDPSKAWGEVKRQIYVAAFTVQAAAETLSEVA

As to Anti-PSMA antibody J591 (UPenn), the Kd turned out to be 0.984 nM in experiment [1], 2.76 nM in experiment [2], 2.54 nM in experiment [3] and 0.551 nM in experiment [4].

By Kd is commonly meant the free concentration of one partner at which half of the binding sites on the other are occupied at equilibrium, for simple one-to-one binding.
